Measured values taken from patent publication US20210388097A1 (SORRENTO THERAPEUTICS, published 2021).

Key:
[1] = target: T1, his-tagged mouse BCMA protein (ACROBiosystems, catalog # BCA-M52H3) (mouse, UniProt O88472 1-49); test: ELISA, his-tagged BCMA on Ni-NTA plate at 2 µg/mL, anti-human Fc HRP
T1 construct: Bought protein; not shown: his tag
T1 chain (looked up): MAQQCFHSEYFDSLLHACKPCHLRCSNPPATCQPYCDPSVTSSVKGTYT
Description: Cross-reactivity of the anti-BCMA antibodies with his-tagged BCMA protein from human, cynomolgus or mouse, were analyzed by ELISA assay. The Ni-NTA plate was coated with his-tagged BCMA proteins (listed in Example 2 above) at 2 μg/mL, then reacted with an anti-BCMA antibody at 20 μg/mL, and reacted with anti-human Fc HRP (KPL Scientific, catalog #5220-0279) at 1:2500 dilution. […] Each set includes 5 test antigens or buffer, from left to right: negative control antigen, his-tagged mouse BCMA protein, his-tagged cynomolgus BCMA protein, his-tagged human BCMA protein, and Dulbecco's Phosphate-Buffered Saline.

[2] = target: T2, Wild type human BCMA protein-mouse Fc (human); test: bio-layer interferometry, antibody (100 nM) loaded on AR2G sensor, BCMA-mouse Fc in solution
T2 construct: also called wild type human BCMA-mouse Fc; wild type BCMA protein
T2 chain: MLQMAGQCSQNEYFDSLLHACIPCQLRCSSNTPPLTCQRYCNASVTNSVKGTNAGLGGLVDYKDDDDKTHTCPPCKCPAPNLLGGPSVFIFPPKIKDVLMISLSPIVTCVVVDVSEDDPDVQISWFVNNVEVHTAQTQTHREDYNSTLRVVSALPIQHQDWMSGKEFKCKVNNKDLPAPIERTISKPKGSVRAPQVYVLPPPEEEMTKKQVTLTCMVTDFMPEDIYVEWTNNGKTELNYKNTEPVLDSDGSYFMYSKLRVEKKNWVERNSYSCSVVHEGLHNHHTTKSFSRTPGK
Description: (§1) The results of the protein-protein binding assays described in Example 8 were used to design an epitope mapping assay using bio-layer interferometry. Various anti-BCMA antibodies (2C5, 2E1, 4C9, 6G8, Bluebird C11D5, GSK J6M0, or isotype control) (100 nM) were loaded onto AR2G sensors and reacted with buffer or one of three types of human BCMA proteins including: including: wild type human BCMA-mouse Fc (SEQ ID NO:5), mutant-1 human BCMA-mouse Fc (double mutation 17G-18G; SEQ ID NO:6), or mutant-2 human BCMA-mouse Fc (mutation del32-35G; SEQ ID NO:7).

[3] = target: T3, Mutant-1 human BCMA protein-mouse Fc (human); test: as above
T3 construct: also called mutant-1 human BCMA-mouse Fc (17G-18G); mutant-1 BCMA protein
T3 chain: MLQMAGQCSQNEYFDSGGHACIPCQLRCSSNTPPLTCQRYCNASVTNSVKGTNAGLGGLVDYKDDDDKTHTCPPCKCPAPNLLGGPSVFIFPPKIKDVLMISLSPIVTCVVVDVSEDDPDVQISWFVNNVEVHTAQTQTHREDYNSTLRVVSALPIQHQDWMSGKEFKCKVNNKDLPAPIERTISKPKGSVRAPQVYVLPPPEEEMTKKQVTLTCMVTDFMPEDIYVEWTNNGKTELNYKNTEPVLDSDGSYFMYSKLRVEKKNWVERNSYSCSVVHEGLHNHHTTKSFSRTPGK
Description: as §1

[4] = target: T4, his-tagged human BCMA protein (ACROBiosystems, catalog # BCA-H522y-100 ug) (human, UniProt Q02223 1-54); test: SPR (Biacore T200, 25 C), antibody captured on anti-human Fc, his-tagged human BCMA as analyte, 1:1 binding model
T4 construct: limits of the bought construct are not otherwise stated; also called recombinant his-tagged human BCMA; not shown: his tag of the bought protein
T4 sequence: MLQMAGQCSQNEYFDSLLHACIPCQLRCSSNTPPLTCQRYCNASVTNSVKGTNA
Description: Binding kinetics of anti-BCMA antibodies with his-tagged human BCMA protein (ACROBiosystems, catalog # BCA-H522y-100 ug, UniProt Q02223-1, SEQ ID NO:92) was measured using surface plasmon resonance (SPR). Kinetic interactions between the antibodies and his-tagged BCMA proteins were measured at 25° C. using Biacore T200 surface plasmon resonance (GE Healthcare). Anti-human fragment crystallizable region (Fc region) antibody was immobilized on a CM5 sensor chip to approximately 8000 resonance units (RU) using standard N-hydroxysuccinimide/N-Ethyl-N′-(3-dimethylaminopropyl) carbodiimide hydrochloride (NHS/EDC) coupling methodology. The anti-BCMA antibody (2 μg/mL) was captured for 60 seconds at a flow rate of 10 μL/minute. The his-tagged BCMA protein was run at six different dilutions of 3.12, 6.25, 12.5, 25, 50, 100 and 200 nM, in a running buffer of 0.01 M HEPES pH 7.4, 0.15 M NaCl, 3 mM EDTA, 0.05% v/v Surfactant P20 (HBS-EP+). The 25 nM BCMA protein run was measured two times. All measurements were conducted in HBS-EP+ buffer with a flow rate of 30 μL/minute. A 1:1 (Langmuir) binding model was used to fit the data. The SPR sensorgrams of anti-BCMA antibodies BCA7, GSK J6M0, BC4C9 and BC5C4 are shown in FIGS. 1, 2, 3 and 4, respectively, and their corresponding binding kinetics are listed in Table 3.

B1: GSK J6M0 antibody (GSK anti-BCMA Ab) (antibody, V domains shown)
VH: QVQLVQSGAEVKKPGSSVKVSCKASGGTFSNYWMHWVRQAPGQGLEWMGATYRGHSDTYYNQKFKGRVTITADKSTSTAYMELSSLRSEDTAVYYCARGAIYDGYDVLDNWGQGTLVTVSS
VL: DIQMTQSPSSLSASVGDRVTITCSASQDISNYLNWYQQKPGKAPKLLIYYTSNLHSGVPSRFSGSGSGTDFTLTISSLQPEDFATYYCQQYRKLPWTFGQGTKLEIK
notes: Comparator anti-BCMA antibody; captured by anti-human Fc in SPR, so it carries a human Fc; also called GSK antibody
binding result [1]: no binding (tested: 20 µg/mL)
binding result [2]: binds
binding result [3]: binds
Kd [4]: 2.52 nM
koff [4]: 0.000496 s⁻¹
kon [4]: 197000 M⁻¹ s⁻¹
